Reference: patent US20260250421A1 (BIOCYTOGEN PHARMACEUTICALS BEIJING, published 2026)
Where a chain is given by its changes, count along the chain named. One block for each binder: values may come before it.

Columns and labels:
[1] = target: T1, His-tagged human TROP2 protein (human, UniProt P09758 27-274); assay: SPR Biacore 8K, Ab on Protein A chip
T1 construct: Bought protein; also called hTROP2-His; ACRO Biosystems Cat# TR2-H5223; not shown: His tag
T1 sequence (looked up): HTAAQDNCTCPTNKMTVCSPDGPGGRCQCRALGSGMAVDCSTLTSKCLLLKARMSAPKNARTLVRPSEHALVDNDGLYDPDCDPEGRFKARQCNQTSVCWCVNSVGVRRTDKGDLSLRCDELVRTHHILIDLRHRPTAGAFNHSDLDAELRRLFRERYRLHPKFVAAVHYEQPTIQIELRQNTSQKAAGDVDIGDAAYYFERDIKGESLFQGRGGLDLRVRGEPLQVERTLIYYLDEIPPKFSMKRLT
Description: (§1) The affinity of the anti-TROP2 antibodies to His-tagged human TROP2 protein (hTROP2-His, ACRO Biosystems Inc., Cat #: TR2-H5223), His-tagged cynomolgus monkey TROP2 protein (cTROP2-His, ACRO Biosystems Inc., Cat #: TR2-R52H3) and His-tagged dog TROP2 protein (dTROP2-His, ACRO Biosystems Inc., Cat #: TR2-C52H4) were measured by surface plasmon resonance (SPR) using Biacore™ (Biacore, INC, Piscataway N.J.) 8K biosensor equipped with pre-immobilized Protein A sensor chips.
(§2) Purified anti-TROP2 antibodies were diluted to 1 μg/mL and then injected into the Biacore™ 8K biosensor at 10 μL/min for about 50 seconds to achieve a desired protein density (e.g., about 350 response units (RU)). The His-tagged TROP2 protein at a concentration of 200 nM was then injected at 30 μL/min for 180 seconds. Dissociation was monitored for 400 seconds. The chip was regenerated after the last injection of each titration with glycine (pH 2.0, 30 μL/min for 30 seconds).

[2] = target: T2, His-tagged monkey TROP2 protein (cynomolgus monkey; Rhesus …, UniProt A0A5F8AGB8 27-274); assay: SPR Biacore 8K, Ab on Protein A chip
T2 construct: also called cTROP2-His; ACRO Biosystems Cat# TR2-R52H3
T2 sequence: T1 sequence (looked up) with M36V, S67N, I204V
Description: as §1, §2

[3] = target: T3, TROP2 on NCI-H1975 and NUGC-4 tumor cells (UniProt P09758 27-323, limits assumed); assay: flow cytometry on NUGC-4 cells (only TROP2 expression), anti-hIgG-Fc Alexa Fluor 647 secondary antibody, MFI [B]
T3 construct: whole, on cells; species of the lines is not worded there; also called TROP2 on cells
T3 sequence (looked up): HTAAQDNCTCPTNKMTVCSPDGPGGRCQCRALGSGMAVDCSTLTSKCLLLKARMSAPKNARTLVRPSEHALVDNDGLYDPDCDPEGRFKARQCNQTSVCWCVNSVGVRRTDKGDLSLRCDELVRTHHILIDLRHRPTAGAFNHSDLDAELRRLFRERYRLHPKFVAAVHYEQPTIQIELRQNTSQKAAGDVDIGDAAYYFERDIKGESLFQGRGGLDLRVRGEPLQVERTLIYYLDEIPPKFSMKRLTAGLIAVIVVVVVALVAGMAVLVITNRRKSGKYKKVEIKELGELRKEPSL
Description: (§3) This experiment was performed to test the binding activities of the anti-PTK7/TROP2 bispecific antibodies to different tumor cell lines. NCI-H1975 cells or NUGC-4 cells were transferred to a 96-well plate at a density of 5×10⁴ cells/well respectively. The sample antibody was added to the 96-well plate, and incubated at 4° C. for 30 min.

[4] = target: T3, TROP2 on NCI-H1975 and NUGC-4 tumor …; assay: flow cytometry on NCI-H1975 cells (PTK7/TROP2 co-expression), anti-hIgG-Fc Alexa Fluor 647 secondary antibody, MFI [A]
Description: as §3

[5] = target: T4, dog PTK7 on dog cancer cell lines (dog, UniProt A0A8I3N574 31-1070); assay: flow cytometry on CMT-U27 and D-17 cells
T4 construct: whole, on cells; Endogenous protein on dog tumour cell lines; also called PTK7 on CMT-U27 and D-17 cells; dog cancer cells
T4 sequence: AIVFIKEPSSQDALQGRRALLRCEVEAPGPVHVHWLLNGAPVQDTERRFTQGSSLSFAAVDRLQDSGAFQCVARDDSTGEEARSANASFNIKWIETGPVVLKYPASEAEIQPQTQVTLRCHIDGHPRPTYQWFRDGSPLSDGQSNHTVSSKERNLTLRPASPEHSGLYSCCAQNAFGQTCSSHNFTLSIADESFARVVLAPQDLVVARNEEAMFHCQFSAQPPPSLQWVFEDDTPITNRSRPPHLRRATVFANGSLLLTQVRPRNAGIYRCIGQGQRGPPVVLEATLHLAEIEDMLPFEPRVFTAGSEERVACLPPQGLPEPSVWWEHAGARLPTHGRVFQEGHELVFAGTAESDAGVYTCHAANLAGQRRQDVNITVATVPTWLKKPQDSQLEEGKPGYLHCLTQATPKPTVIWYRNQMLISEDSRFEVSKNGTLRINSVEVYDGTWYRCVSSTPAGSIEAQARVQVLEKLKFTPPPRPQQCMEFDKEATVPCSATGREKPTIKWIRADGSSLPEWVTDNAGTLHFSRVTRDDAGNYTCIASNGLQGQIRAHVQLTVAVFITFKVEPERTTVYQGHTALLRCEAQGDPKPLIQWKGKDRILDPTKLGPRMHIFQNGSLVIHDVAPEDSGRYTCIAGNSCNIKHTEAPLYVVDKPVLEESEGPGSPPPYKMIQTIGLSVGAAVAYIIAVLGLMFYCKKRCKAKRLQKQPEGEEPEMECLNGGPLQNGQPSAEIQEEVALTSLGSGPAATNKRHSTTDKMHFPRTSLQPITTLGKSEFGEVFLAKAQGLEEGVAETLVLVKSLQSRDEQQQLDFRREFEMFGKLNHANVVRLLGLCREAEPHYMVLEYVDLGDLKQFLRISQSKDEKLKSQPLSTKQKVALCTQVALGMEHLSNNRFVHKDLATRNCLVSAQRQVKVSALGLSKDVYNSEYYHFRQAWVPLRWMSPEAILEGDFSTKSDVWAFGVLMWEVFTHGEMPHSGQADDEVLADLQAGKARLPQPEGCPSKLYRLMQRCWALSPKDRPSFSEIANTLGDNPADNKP
Description: (§4) The binding activity of anti-PTK7 antibodies to cancer cell lines was verified by flow cytometry. […] Purified anti-PTK7 antibody with a concentration of 5 μg/mL was added to each well and was incubated at 4° C. for 30 minutes. […] The cells were collected, and the mean fluorescence intensity (MFI) was determined. Human IgG1 was used as ISO control.

[6] = target: T5, His-tagged dog PTK7 protein (dog, UniProt Q13308 31-703 (human entry)); assay: SPR Biacore 8K, Ab on Protein A chip
T5 construct: also called dPTK7-His
T5 chain: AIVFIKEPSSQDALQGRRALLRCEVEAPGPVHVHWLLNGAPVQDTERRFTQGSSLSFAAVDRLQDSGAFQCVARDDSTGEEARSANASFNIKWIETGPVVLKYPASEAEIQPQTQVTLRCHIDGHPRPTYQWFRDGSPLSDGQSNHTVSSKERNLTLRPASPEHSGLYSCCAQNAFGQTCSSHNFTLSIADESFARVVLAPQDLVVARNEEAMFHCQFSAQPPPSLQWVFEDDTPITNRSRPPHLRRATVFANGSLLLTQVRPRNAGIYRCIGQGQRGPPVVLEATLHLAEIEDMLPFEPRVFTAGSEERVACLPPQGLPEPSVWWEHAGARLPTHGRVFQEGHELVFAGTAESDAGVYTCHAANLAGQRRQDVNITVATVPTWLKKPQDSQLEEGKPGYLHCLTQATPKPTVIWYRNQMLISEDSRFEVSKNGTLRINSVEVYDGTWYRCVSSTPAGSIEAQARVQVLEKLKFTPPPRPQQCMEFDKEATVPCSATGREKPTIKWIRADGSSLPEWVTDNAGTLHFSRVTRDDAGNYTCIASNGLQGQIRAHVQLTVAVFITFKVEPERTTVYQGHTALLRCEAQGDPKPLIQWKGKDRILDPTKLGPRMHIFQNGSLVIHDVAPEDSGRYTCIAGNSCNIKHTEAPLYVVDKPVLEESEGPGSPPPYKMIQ
Description: as §2, with “anti-PTK7” for “anti-TROP2”, “50” for “350”, “PTK7” for “TROP2”, “200 nM or 0” for “200”

[7] = target: T4, dog PTK7 on dog cancer cell lines; assay: flow cytometry, D-17 dog cells, Ab 5 ug/mL
Description: as §4

[8] = target: T4, dog PTK7 on dog cancer cell lines; assay: flow cytometry, CMT-U27 dog cells, Ab 5 ug/mL
Description: as §4

B1: 18F12 (antibody, V domains shown)
VH: QLQLKESGPGLVKPSETLSLTCTVSGGSISYYYWSWIRQPPGMGLEWIGNIYYSGDTNYNPSLRSRVTISIDMSKNQFSLRLNSVTAADTAVYYCARYDMFKWNYEAFDVWGQGTMVTVSS
VL: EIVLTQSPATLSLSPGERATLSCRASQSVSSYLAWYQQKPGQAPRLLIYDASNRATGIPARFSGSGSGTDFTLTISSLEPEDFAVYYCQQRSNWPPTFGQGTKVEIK
notes: also called anti-TROP2 antibody 18F12
Kd [1]: 7.16 nM
koff [1]: 0.00511 s⁻¹
kon [1]: 713000 M⁻¹ s⁻¹
Kd [2]: 5.41 nM
koff [2]: 0.00435 s⁻¹
kon [2]: 803000 M⁻¹ s⁻¹

B3: DS-1062 analog-LALA (antibody, V domains shown)
VH: QVQLVQSGAEVKKPGASVKVSCKASGYTFTTAGMQWVRQAPGQGLEWMGWINTHSGVPKYAEDFKGRVTISADTSTSTAYLQLSSLKSEDTAVYYCARSGFGSSYWYFDVWGQGTLVTVSS
VL: DIQMTQSPSSLSASVGDRVTITCKASQDVSTAVAWYQQKPGKAPKLLIYSASYRYTGVPSRFSGSGSGTDFTLTISSLQPEDFAVYYCQQHYITPLTFGQGTKLEIKR
notes: also called DS-1062 analog with LALA mutations
Kd [1]: 37 nM
koff [1]: 0.00411 s⁻¹
kon [1]: 111000 M⁻¹ s⁻¹
Kd [2]: 32.5 nM
koff [2]: 0.00409 s⁻¹
kon [2]: 126000 M⁻¹ s⁻¹

B5: 18E9 (antibody, V domains shown)
VH: QLQLQQSGPGLLKPSETLSLTCTVSGGSISSSYYFWGWIRQPPGKGLEWIGAIYYIGNTHYNPSLKSRVTISIDTSKNQFSLNLNSVTAADTAIYYCARYEDTWNWFDPWGQGTLVTVSS
VL: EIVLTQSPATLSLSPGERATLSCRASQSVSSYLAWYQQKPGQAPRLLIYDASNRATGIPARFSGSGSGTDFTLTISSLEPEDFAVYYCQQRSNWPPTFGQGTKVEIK
notes: also called anti-TROP2 antibody 18E9
Kd [1]: 1.46 nM
koff [1]: 0.00117 s⁻¹
kon [1]: 798000 M⁻¹ s⁻¹
Kd [2]: 1.2 nM
koff [2]: 0.00132 s⁻¹
kon [2]: 1.1e+06 M⁻¹ s⁻¹

B6: DS-1062 analog (antibody, V domains shown)
VH: B3 VH
VL: DIQMTQSPSSLSASVGDRVTITCKASQDVSTAVAWYQQKPGKAPKLLIYSASYRYTGVPSRFSGSGSGTDFTLTISSLQPEDFAVYYCQQHYITPLTFGQGTKLEIK
notes: The sheet names it 'DS-1062 analog' with no LALA or SI suffix, so it is kept apart from m18 (DS-1062 analog-LALA); also called antibody portion of DS-1062; copies: 2 + 2
EC50 (read off the curve) [3]: ~0.3 µg/mL
EC50 (read off the curve) [4]: ~0.4 µg/mL

Second part, the binder after the results:

Kd [1]: 1.24 nM
koff [1]: 0.000255 s⁻¹
kon [1]: 205000 M⁻¹ s⁻¹
Kd [2]: 1.11 nM
koff [2]: 0.000245 s⁻¹
kon [2]: 221000 M⁻¹ s⁻¹
EC50 (read off the curve) [3]: ~0.6 µg/mL
EC50 (read off the curve) [4]: ~0.7 µg/mL
B2: Sacituzumab analog (antibody, V domains shown)
VH: QVQLQQSGSELKKPGASVKVSCKASGYTFTNYGMNWVKQAPGQGLKWMGWINTYTGEPTYTDDFKGRFAFSLDTSVSTAYLQISSLKADDTAVYFCARGGFGSSYWYFDVWGQGSLVTVSS
VL: B3 VL with M4L, T20S, T31I, S60D, Q100A, L104V
notes: also called antibody portion of Sacituzumab govitecan

binding result [5]: no binding (tested: 5 ug/mL)
binding result [6]: no binding (tested: 200 nM)
MFI [7]: 3690
MFI [8]: 1940
binding result [3]: no binding (tested: about 20 µg/mL)
B4: hu24 analog (antibody, IgG1, V domains shown)
VH: QVQLVQSGPEVKKPGASVKVSCKASGYTFTDYAVHWVRQAPGKRLEWIGVISTYNDYTYNNQDFKGRVTMTRDTSASTAYMELSRLRSEDTAVYYCARGNSYFYALDYWGQGTSVTVSS
VL: EIVLTQSPATLSLSPGERATLSCRASESVDSYGKSFMHWYQQKPGQAPRLLIYRASNLESGIPARFSGSGSGTDFTLTISSLEPEDFAVYYCQQSNEDPWTFGGGTKLEIK
notes: Humanized IgG1 monoclonal antibody targeting PTK7; also called positive control
